Patent publication US20030028924

Legend:
[1] = target: T1, Purified oat phytochrome A, autophosphorylated in the presence of gamma-[32P]ATP, P06593
T1 chain: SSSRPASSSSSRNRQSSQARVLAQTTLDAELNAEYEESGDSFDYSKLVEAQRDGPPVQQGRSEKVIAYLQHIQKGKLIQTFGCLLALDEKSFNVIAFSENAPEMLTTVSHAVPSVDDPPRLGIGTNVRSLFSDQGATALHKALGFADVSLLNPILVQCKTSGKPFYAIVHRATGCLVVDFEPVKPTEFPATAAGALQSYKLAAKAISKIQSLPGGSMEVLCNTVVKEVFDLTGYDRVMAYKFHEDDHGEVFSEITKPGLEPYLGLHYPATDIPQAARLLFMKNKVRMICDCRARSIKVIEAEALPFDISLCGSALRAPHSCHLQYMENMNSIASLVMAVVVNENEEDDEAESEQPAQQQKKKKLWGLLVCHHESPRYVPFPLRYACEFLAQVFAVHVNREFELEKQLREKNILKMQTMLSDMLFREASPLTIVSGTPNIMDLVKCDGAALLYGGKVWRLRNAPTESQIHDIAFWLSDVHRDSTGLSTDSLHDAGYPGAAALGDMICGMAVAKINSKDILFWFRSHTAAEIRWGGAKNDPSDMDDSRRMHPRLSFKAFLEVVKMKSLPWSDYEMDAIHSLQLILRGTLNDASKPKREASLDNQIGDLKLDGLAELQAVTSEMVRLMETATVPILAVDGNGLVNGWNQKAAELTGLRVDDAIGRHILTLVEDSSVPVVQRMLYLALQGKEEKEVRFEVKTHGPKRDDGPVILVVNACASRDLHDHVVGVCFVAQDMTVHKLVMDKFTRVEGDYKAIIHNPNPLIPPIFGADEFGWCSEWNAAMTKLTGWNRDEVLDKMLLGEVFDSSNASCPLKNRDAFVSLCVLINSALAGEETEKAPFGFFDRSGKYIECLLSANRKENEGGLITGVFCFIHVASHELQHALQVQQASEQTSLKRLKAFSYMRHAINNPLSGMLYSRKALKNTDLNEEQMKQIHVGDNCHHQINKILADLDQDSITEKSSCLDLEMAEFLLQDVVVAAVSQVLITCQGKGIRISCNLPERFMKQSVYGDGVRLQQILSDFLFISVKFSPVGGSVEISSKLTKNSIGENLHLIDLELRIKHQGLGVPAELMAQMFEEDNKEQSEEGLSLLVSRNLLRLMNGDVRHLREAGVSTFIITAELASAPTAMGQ

[2] = target: T2, Purified oat phytochrome A, Pr spectral form, autophosphorylated, P06593
T2 chain: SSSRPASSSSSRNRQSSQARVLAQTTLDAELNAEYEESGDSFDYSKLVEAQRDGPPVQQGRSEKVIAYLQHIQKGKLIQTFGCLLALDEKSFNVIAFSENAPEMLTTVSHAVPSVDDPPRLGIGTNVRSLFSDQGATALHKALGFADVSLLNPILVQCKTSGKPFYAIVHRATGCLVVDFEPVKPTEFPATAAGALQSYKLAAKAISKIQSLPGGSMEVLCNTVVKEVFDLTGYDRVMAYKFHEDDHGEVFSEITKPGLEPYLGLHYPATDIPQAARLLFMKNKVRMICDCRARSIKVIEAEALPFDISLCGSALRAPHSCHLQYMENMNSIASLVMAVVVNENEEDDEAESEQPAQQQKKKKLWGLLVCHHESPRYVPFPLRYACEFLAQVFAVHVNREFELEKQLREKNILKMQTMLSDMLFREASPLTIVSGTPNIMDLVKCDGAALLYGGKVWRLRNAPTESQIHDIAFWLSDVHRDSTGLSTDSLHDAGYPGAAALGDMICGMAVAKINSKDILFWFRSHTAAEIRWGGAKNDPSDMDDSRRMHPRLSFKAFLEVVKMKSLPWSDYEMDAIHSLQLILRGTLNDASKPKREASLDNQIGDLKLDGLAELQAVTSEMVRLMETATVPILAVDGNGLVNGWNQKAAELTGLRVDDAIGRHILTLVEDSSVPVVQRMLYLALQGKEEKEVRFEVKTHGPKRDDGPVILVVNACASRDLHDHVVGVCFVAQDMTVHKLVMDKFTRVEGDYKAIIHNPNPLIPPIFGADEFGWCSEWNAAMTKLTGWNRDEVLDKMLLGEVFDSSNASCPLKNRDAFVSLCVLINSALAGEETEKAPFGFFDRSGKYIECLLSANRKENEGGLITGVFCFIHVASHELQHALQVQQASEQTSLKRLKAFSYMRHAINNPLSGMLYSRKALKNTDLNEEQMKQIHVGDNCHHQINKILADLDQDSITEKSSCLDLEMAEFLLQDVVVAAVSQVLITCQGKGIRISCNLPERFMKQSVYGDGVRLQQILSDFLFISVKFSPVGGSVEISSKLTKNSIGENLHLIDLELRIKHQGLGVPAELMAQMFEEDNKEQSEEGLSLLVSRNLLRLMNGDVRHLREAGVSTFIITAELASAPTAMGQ

[3] = target: T3, Purified oat phytochrome A, Pfr spectral form, autophosphorylated, P06593
T3 chain: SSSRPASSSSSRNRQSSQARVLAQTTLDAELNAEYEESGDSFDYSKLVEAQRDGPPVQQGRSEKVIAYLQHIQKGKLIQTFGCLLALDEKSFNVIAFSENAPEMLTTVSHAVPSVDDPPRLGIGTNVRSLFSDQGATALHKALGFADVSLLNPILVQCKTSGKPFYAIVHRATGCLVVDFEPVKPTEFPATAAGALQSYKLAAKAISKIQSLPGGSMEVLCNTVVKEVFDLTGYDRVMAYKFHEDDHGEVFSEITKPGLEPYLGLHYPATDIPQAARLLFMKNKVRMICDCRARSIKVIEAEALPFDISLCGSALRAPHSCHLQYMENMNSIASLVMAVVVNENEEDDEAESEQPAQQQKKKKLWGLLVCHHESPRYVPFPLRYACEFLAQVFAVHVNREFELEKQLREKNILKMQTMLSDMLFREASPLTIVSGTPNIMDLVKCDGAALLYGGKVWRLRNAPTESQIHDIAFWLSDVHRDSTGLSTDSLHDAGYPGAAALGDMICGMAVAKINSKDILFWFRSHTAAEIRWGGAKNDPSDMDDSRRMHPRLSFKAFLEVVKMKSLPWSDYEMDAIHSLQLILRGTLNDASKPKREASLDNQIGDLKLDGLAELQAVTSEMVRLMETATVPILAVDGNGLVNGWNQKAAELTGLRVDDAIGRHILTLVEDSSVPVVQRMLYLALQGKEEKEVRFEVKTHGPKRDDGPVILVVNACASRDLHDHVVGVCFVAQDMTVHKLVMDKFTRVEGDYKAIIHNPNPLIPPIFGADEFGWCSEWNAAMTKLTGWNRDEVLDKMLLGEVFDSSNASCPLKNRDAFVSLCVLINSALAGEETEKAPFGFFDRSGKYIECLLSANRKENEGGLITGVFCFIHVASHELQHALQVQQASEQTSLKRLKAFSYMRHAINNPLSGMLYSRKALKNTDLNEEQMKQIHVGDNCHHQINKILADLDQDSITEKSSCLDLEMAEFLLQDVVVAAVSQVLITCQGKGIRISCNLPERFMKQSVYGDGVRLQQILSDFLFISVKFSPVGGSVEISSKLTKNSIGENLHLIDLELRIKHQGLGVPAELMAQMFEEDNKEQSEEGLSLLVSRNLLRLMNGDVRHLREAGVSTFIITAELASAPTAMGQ

B1: Recombinant PP2AC-JD protein expressed in E. coli BL21 from pGEX-4T-1 as a GST fusion, GST tag removed by thrombin (protein)
chain: DLDQWISKVKDGQHLLEDELQLLCEYVKEILIEESNVQPVNSPVTVCGDIHGQFHDLMKLFQTGGHVPETNYIFMGDFVDRGYNSLDVFTILLLLKARYPANITLLRGNHESRQLTQVYGFYDECQRKYGNANATRYCTDVFDYLTLSAIIDGTVLCVHGGLSPDIRTIDQIRVIERNCEIPHEGPFCDLMWSDPEDIETWAVSPRGAGWLFGSRVTSEFNHINNLDLVCRAHQLVQEGLKYMFQDKGLVTVWSAPNYCYRCGNVASILSFNENMEREVKFFTETEENNQMRGPRTGVPYFL
[1]
  dephosphorylation of 32P-autophosphorylated phytochrome A (SDS-PAGE, autoradiography): efficiently dephosphorylated by the PP2AC-JD only in the presence of Fe^2+ or Zn^2+
[2]
  dephosphorylation of 32P-autophosphorylated phytochrome A (SDS-PAGE, autoradiography): The Pfr phytochrome A was more efficiently dephosphorylated by the PP2AC-JD than the Pr spectral form
[3]
  dephosphorylation of 32P-autophosphorylated phytochrome A (SDS-PAGE, autoradiography): more efficiently dephosphorylated by the PP2AC-JD than the Pr spectral form
